The values that follow come from article doi:10.1101/2022.03.05.483071.

In the assay the target is KIF5A ΔExon27-GFP (human) (UniProt Q12840). Description: single-molecule TIRF microscopy, fluorescence intensity of moving spots.

Consider “KIF5A ΔExon27-GFP (from UniProt Q12840 1-998) (natural protein)”, for which the percent of moving spots that are a single dimer amounted to 25%.
